Results published in patent publication US20050032689A1, “Methods for treatment or diagnosis of disease or disorders associated with an APB domain” (New York University, priority 1994, published 2005).

Tests used:
[1] = test system: EGF receptor mutants (Y5F, CD196); assay: Binding of GST-Shc 1-209 to EGF receptor autophosphorylation mutants from NIH 3T3 lysates; settings: all tyrosine-phosphorylated residues mutated to phenylalanine or carboxyl terminus deleted
Method: FIG. 3. Association of GST-Shc 1-209 with mutant forms of the EGF receptor. NIH 3T3 cells overexpressing various EGF receptor mutants were stimulated with EGF (200 ng/ml) for 3 min and then lysed. Wild type EGF receptor (W.T.) contains all five known EGF receptor autophosphorylation sites, Y2F has Tyr-992 and Tyr-1068 mutated to phenylalanine, Y5F has all five known EGF receptor autophosphorylation sites mutated to phenylalanine, and CD196 has a carboxyterminal deletion of 196 amino acids deleting all known autophosphorylation sites (Li, N., et al. (1994) Oncogene (In Press). Beads containing GST-Shc 1-209 fusion protein (3 μg) were added to the various lysates containing equal amounts of the receptor (left panels) or the lysates were immunoprecipitated with the anti-EGF receptor (EGFR) antibody (mAb108) (right panels). All samples were incubated at 4° C. for 90 min. The bound proteins were then washed, subjected to SDS-PAGE and transferred to nitrocellulose. […]
(§1) Binding Studies—GST fusion proteins were expressed using standard techniques (Ausubel, F. M., et al. Current Protocols in Molecular Biology, (1992) Wiley Interscience, New York). Protein concentration was determined by SDS-PAGE (polyacrylamide gel electrophoresis) using bovine serum albumin as a standard. […]

EGF receptor = target: T1, EGF receptor (Homo sapiens, UniProt P00533); assay: Binding of GST fusion proteins to immunoprecipitated EGF receptor phosphorylated in vitro, anti-GST blot; settings: immunoprecipitated receptor from unstimulated cells, with or without Mn2+ and ATP
T1 construct: expressed in transfected cells; host or cells: HER14 (NIH 3T3 cells expressing human EGF receptor)
Method: FIGS. 2A and 2B. Association of GST-Shc 1-209 with the EGF Receptor (EGFR). A, HER14 lysates from either EGF-stimulated (+) or unstimulated (−) cells (5×10^6 cells) were incubated with 3 μg of GST fusion protein immobilized on glutathione-agarose beads. The bound proteins were washed, subjected to SDS-PAGE, transferred to nitrocellulose and immunoblotted with anti-EGF receptor antibody, anti-C (anti-EGFR). HER14 lysate (4×10^5 cells) was run directly on the gel in lanes 5 and 6. B, unstimulated HER14 lysates (5×10^6 cells) were immunoprecipitated with anti-EGFR antibody (mAb 108). The immobilized receptor was then phosphorylated (+) by the addition of 5 mM MnCl2 and 50 μM ATP or left unphosphorylated (−) by adding MnCl2 alone. Bacterial lysates containing 5 μg of GST, GST-Grb7, and GST-Shc 1-209 were then diluted in 1 ml of 1% Triton X-100 lysis buffer, added to the immobilized receptor and incubated at 4° C. for 90 min. The bound proteins were washed and together with 40 μl of the post-binding supernatant separated by SDS-PAGE and transferred to nitrocellulose. […]
as §1

- binding to EGF receptor mutants lacking autophosphorylation sites [1]: completely eliminated Shc 1-209 binding
B1: Shc 1-209: Shc amino terminus, first 209 amino acids of murine p52Shc, generated as a GST fusion protein (protein, UniProt P98083 1-209, looked up, fragment)
chain: MDLLPPKPKYNPLRNESLSSLEEGASGSTPPEELPSPSASSLGPILPPLPGDDSPTTLCSFFPRMSNLKLANPAGGRLGPKGEPGKAAEDGEGSAGAALRDSGLLPLLQDMNKLSGGGGRRTRVEGGQLGGEEWTRHGSFVNKPTRGWLHPNDKVMGPGVSYLVRYMGCVEVLQSMRALDFNTRTQVTREAISLVCEAVPGAKGATRRR
modifications: GST fusion
notes: Shc amino terminus, first 209 amino acids of murine p52Shc, generated as a GST fusion protein
- binding to EGF receptor phosphorylated in vitro (EGF receptor): bound directly to phosphorylated but not non-phosphorylated receptors
